Patent publication US8133482B2, “Activatable photodynamic therapy agents” (The Trustees of the University of Pennsylvania, priority 2003, dated 2012)
The star is where a group is joined. Mu = morpholinocarbonyl cap, O=C(N1CCOCC1)*; Dox = doxorubicin

How the values were obtained:
[1] = photophysical properties of pyropheophorbide acid (1O2 yield); type: physicochemical
PSA = PSA (Homo sapiens, UniProt P07288); conditions: incubation with enzymatically active PSA, HPLC detection; cited from earlier work
Sequence of PSA (P07288 25-261): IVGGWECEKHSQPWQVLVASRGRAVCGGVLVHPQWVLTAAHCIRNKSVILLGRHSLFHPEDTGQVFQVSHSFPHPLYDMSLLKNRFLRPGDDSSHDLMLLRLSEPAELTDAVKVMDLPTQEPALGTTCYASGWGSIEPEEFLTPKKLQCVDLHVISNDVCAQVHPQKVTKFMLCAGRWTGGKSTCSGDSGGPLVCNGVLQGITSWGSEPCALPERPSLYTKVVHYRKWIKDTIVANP

Molecule | 1O2 yield [1] | hydrolysis by PSA (PSA)
C=Cc1c(C)c2cc3nc(c4c5[nH]c(cc6nc(cc1[nH]2)C(C)=C6CC)c(C)c5C(=O)C4)[C@@H](CCC(=O)O)[C@@H]3C [Pyropheophorbide acid, pyropheophorbide acid] | 45% | –
Mu-HS SKLQ(SEQ ID NO:13)-Leu-Dox (Mu-HSSKLQL-Dox) | – | resulted in production of Leu-Dox
Ac-HSSKLQ(SEQ ID NO:13)-Dox (Ac-HSSKLQ-Dox) | – | unable to hydrolyze
